For 1 protein, unfolding free energy results are on record in FireProtDB (doi:10.1529/biophysj.106.101162).

Several values for one entry are separate records, joined by “and”; a condition that tells them apart may be missing. Identical values can stand only once.

The conditions of the data set: Thermus thermophilus, 20 °C, GdnHCl, CD, Sodium acetate 50 mM, reversible: Yes, whole UniProt chain shown.

B1: Cytochrome c oxidase subunit 2 wild type, P98052 (protein)
chain: AYTLATHTAGVIPAGKLERVDPTTVRQEGPWADPAQAVVQTGPNQYTVYVLAFAFGYQPNPIEVPQGAEIVFKITSPDVIHGFHVEGTNINVEVLPGEVSTVRYTFKRPGEYRIICNQYCGLGHQNMFGTIVVKE
Regarding B1, the unfolding free energy is 11.9 kJ/mol and 9.2 kJ/mol (pH 3.5); 13.2 kJ/mol and 10.9 kJ/mol (pH 4); 14.9 kJ/mol and 11.9 kJ/mol and 11.4 kJ/mol (pH 4.5); 26.7 kJ/mol and 28 kJ/mol and 17.4 kJ/mol (pH 5); 37.7 kJ/mol (pH 5.5); 66.6 kJ/mol and 55 kJ/mol and 25 kJ/mol (pH 6). For the same protein, where the note is “pH 7”, the unfolding free energy was 84.6 kJ/mol and 64.4 kJ/mol.
